Measured values published in patent publication US9012398B2.

Molecular target: human GLP-1 receptor (human) (UniProt P43220)

| Substance | GLP1cAMPma (3693) [EC50 (nM)] Mean Value |
| --- | --- |
| N-ε^27-{2-(2-(2-(2-[2-(2-(4-(hexadecanoylamino)-4(S)- carboxybutyrylamino)ethoxy)ethoxy)acetylamino)ethoxy)ethoxy)acetyl} [Leu^14,28,Lys^27]Exendin-4(1-39)amide (from UniProt P26349) (peptide) | 0.19 nM |
| N-ε^27-{2-(2-(2-(2-[2-(2-(4-(hexadecanoylamino)-4(S)- carboxybutyrylamino)ethoxy)ethoxy]acetylamino)ethoxy)ethoxy) acetyl)}[Gln^12,Leu^14,28,Lys^27]Exendin-4(1-39)amide (from UniProt P26349) (peptide) | 0.041 nM |
| N-ε^28-(2-(2-(2-(2-(2-(2-(2-(2-(2- (Octadecanoylamino)ethoxy)ethoxy)acetylamino)ethoxy)ethoxy)acetyl- amino)ethoxy)ethoxy)acetyl))[Arg^12,Leu^14,Val^27,Lys^28 Exendin-4(1- 39)amide (from UniProt P26349) (peptide) | 0.025 nM |
| N-ε^28-(2-(2-(2-(2-(2-(2-(2-(2-(2- (Octadecanoylamino)ethoxy)ethoxy)acetylamino)ethoxy)ethoxy)acetyl- amino)ethoxy)ethoxy)acetyl))[Arg^12,Val^27,Lys^28]Exendin-4(1-39)amide (from UniProt P26349) (peptide) | 0.041 nM |
| N-ε^28-[2-(2-[2-(2-[2-(2-[4-hexadecanoylamino-4(S)- carboxybutyrylamino]ethoxy)ethoxy]acetylamino)ethoxy]ethoxy)acetyl] [alfa-Me-Phe^6,Arg^12,Val^27,Lys^28,Ala^29]Exendin-4-(1-39)-amide (from UniProt P26349) (peptide) | 0.052 nM |
| N-ε^28-{2-(2-(2-(2-[2-(2-(4-(hexadecanoylamino)-4- carboxybutyrylamino)ethoxy)ethoxy]acetylamino)ethoxy)ethoxy) acetyl)}-[Leu^14,Lys^20]Exendin-4-amide (from UniProt P26349) (peptide) | 0.011 nM |
| N-ε^32-(2-(2-(2-(2-(2-(2-(2-(2-(2- (Octadecanoylamino)ethoxy)ethoxy)acetylamino)ethoxy)ethoxy)acetyl- amino)ethoxy)ethoxy)acetyl))[Arg^12,Leu^14,Val^27,Arg^28,Lys^32]Exendin-4 (1-39)amide (from UniProt P26349) (peptide) | 0.027 nM |
| N-ε^32-(2-(2-(2-(2-(2-(2-(4-(Octadecanoylamino)-4(S)- carboxybutyrylamino))ethoxy)ethoxy)acetylamino)ethoxy) ethoxy)acetyl[Arg^12,Leu^14,Val^27,Arg^28,Lys^32]Exendin-4-(1-39)amide (from UniProt P26349) (peptide) | 0.025 nM |
| N-ε^32-[2-(2-[2-(2-[2-(2-[2-(2-[2- (Eicosanoylamino)ethoxy]ethoxy)acetylamino]ethoxy)ethoxy] acetylamino)ethoxy]ethoxy)acetyl][Arg^12,28,Leu^14,Val^27,Lys^32] Exendin-4-(1-39)amide (from UniProt P26349) (peptide) | 0.27 nM |
| N-ε^34-(2-(2-(2-(16-tetrazoylhexadecanoylamino-4(S)- carboxybutyrylamino)ethoxy)ethoxy(acetyl)[Leu^14,Arg^12,27, Lys^34]Exendin-4(1-39)amide (from UniProt P26349) (peptide) | 0.61 nM |
| N-ε^34-(2-(2-(2-(17-carboxyheptadecanoylamino)ethoxy)ethoxy)acetyl) [Leu^14,Arg^12,27,Lys^34]Exendin-4(1-39)amide (from UniProt P26349) (peptide) | 0.44 nM |
| N-ε^34-[2-(2-[2-(2-[2-(2-[4-hexadecanoylamino-4(S)- carboxybutyrylamino]ethoxy)ethoxy]acetylamino)ethoxy]ethoxy)acetyl] [Arg^12,27,Leu^14,Lys^34]Exendin-4(1-39)amide (from UniProt P26349) (peptide) | 0.018 nM |
| N-ε^34-[2-(2-[2-[4-hexadecanoylamino-4(S)- carboxybutyrylamino]ethoxy]ethoxy)acetyl][Arg^12,27,Leu^14,Lys^34] Exendin-4(1-39)amide (from UniProt P26349) (peptide) | 0.012 nM |
